# Laboratory results reported in patent US7601489.
# Where two headings read alike, the source gives them in different places.
# Assays:
# [1] = target: T1, Ty1 VLP-associated reverse transcriptase (Saccharomyces cerevisiae Ty1 retrotransposon) (UniProt Q07163); conditions: 100% incorporation with Mg2+; 22 C; 50% inhibition at Mn2+:Mg2+ ratio 8e-3
# T1 sequence: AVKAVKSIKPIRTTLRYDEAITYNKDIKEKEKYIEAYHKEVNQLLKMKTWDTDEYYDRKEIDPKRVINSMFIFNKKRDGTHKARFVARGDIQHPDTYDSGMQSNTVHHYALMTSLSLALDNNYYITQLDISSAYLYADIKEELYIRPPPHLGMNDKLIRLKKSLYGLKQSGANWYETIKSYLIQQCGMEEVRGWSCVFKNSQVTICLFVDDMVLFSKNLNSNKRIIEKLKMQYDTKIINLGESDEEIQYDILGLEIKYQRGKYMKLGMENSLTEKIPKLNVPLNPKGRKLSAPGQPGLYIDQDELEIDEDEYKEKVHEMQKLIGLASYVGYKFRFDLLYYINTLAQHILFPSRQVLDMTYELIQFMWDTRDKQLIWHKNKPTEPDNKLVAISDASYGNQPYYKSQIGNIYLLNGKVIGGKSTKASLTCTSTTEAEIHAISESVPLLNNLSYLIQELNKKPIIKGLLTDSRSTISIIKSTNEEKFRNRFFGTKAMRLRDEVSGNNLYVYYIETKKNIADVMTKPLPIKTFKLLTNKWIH
# [2] = target: HIV-1 reverse transcriptase (heterodimer) (HIV-1) (UniProt P04585+P04585); conditions: 100% incorporation with Mg2+; 37 C; 50% inhibition at Mn2+:Mg2+ ratio 7e-4
# [3] = target: T2, Ty1 reverse transcriptase D211N D211N (Saccharomyces cerevisiae Ty1 retrotransposon) (UniProt Q07163); conditions: 22 C, 20 mM KCl, pH 7.8
# T2 sequence: T1 sequence
# [4] = target: T3, Ty1 reverse transcriptase (wild-type) (Saccharomyces cerevisiae Ty1 retrotransposon) (UniProt Q07163); conditions: 22 C, 20 mM KCl, pH 7.8
# T3 sequence: T1 sequence
substance,measurement,setting,value
oligo(dG)12-18/poly(rC) primer-template,activity (pmol dGTP/ul VLP per 60 min),[1],5
same,activity (pmol dGTP/ug RT per 60 min),[2],205
same,activity,"[3]; kcat with Mg2+, K0.5 Mg2+ 6.3 mM",1.6 h⁻¹
same,activity,"[3]; kcat with Mn2+, K0.5 Mn2+ 0.02 mM",0.57 h⁻¹
same,activity,"[4]; kcat with Mg2+, K0.5 Mg2+ 0.13 mM",1.61 h⁻¹
same,activity,"[4]; kcat with Mn2+, K0.5 Mn2+ 19.9 mM",0.56 h⁻¹
